For orientation: Kd means the free concentration of one partner at which half of the binding sites on the other are occupied at equilibrium, for simple one-to-one binding. A word on the koff: it is the rate constant with which the complex falls apart. Low readings indicate slow dissociation, high ones fast dissociation. As a reminder, the kon is the rate constant with which the complex forms. Read a low kon as slow association.

The results in this text go back to patent publication US20160333105A1 (UCB, published 2016).

Experiment [1] concerns the target T1, human serum albumin (human, UniProt P02768 25-609).
T1 construct: Bought reagent; also called HSA
The experiment can be described thus: SPR (BIAcore), HSA as analyte.

Experiment [2] addresses T1, human serum albumin. The experiment can be described thus: SPR, Biacore 3000; construct captured by anti-CH1 antibody, HSA as analyte, 1:1 model. As for the experimental part:
(§1) The (A26Fab-645Fv)₂-Fc samples were captured to the sensor chip surface using either a human Fe-specific goat F(ab′)₂ (Jackson ImmunoResearch, 109-006-098) or an in-house generated anti-human CH1 monoclonal antibody. Covalent immobilisation of the capture antibody was achieved by standard amine coupling chemistry.
(§2) Kinetic binding analysis by SPR was conducted to assess the interactions of human serum albumin (HSA) to the (A26Fab-645Fv)₂-Fc fusion, when captured using either anti-Fc or anti CH1 antibody.
(In general: In SPR one partner is held on a chip, and binding of the other changes the refractive index at the surface.)

Experiment [3] addresses T1, human serum albumin. The experiment in a line: SPR, Biacore 3000; construct captured by anti-Fc F(ab')2, HSA as analyte, 1:1 model. The protocol: as §1, §2

B1: (A26Fab-645Fv)2-Fc (bispecific antibody)
heavy: not shown
light: DIQMTQSPSSLSASVGDRVTITCRATQSIYNALAWYQQKPGKAPKLLIYNANTLHTGVPSRFSASGSGTDSTLTISSLQPEDFATYYCQQYYDYPLTFGGGTKVEIKRTVAAPSVFIFPPSDEQLKSGTASVVCLLNNFYPREAKVQWKVDNALQSGNSQESVTEQDSKDSTYSLSSTLTLSKADYEKHKVYACEVTHQGLSSPVTKSFNRGECSGGGGSGGGGSDIVMTQSPSSVSASVGDRVTITCQSSPSVWSNFLSWYQQKPGKAPKLLIYEASKLTSGVPSRFKGSGSGTDFTLTISSLQPEDFATYYCGGGYSSISDTTFGGGTKVEIKRMHEQKLISEEDL
notes: Tested as HEK293 supernatant; also called (FabFv)2Fc; (A26-645Fv)2-Fc
In the experiment with human serum albumin [1], B1 registered a Kd of 0.97 nM, a Stoichiometry of 0.55, a koff of 6e-05 s⁻¹ and a kon of 62100 M⁻¹ s⁻¹. In the experiment with human serum albumin [2], this molecule displayed a Kd of 0.97 nM, a koff of 6e-05 s⁻¹ and an on-rate constant (kon) of 62000 M⁻¹ s⁻¹. In the experiment with human serum albumin [3], this molecule came in with a Kd of 1.88 nM, a koff of 7.14e-05 s⁻¹ and a kon of 38000 M⁻¹ s⁻¹.
